Measurements: patent publication US20250154250A1, “CEACAM5 ADC-ANTI-PD1/PD-L1 COMBINATION THERAPY” (SANOFI, priority 2021, published 2025)

Molecular target: T1, recombinant human CEACAM5 (Homo sapiens, UniProt P06731)
T1 sequence (P06731 35-676): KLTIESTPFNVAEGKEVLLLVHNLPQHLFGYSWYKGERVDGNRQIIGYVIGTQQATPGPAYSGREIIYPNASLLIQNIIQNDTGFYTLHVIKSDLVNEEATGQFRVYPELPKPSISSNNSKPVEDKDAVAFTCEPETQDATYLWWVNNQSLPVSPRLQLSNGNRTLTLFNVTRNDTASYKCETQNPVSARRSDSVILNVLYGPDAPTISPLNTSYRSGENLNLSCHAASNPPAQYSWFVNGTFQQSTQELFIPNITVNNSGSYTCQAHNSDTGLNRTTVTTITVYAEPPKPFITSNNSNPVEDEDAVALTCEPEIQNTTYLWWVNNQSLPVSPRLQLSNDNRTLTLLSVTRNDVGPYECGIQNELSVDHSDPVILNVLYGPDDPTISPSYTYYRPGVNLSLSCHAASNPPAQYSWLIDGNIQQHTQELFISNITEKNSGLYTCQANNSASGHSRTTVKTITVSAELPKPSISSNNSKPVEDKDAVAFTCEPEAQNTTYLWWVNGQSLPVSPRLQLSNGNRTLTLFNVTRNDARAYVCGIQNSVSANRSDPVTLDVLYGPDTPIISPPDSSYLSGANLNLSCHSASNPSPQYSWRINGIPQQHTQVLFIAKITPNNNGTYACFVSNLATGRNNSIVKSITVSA
Experiment: ELISA binding to recombinant human CEACAM5
Settings: read-out: affinity (ELISA)
Description: “Affinity” is defined, in theory, by the equilibrium association between the whole antibody and the antigen. It can be experimentally assessed by a variety of known methods, such as measuring association and dissociation rates with surface plasmon resonance or measuring the EC50 (or apparent KD) in an immunochemical assay (ELISA, FACS). In these assays, the EC50 is the concentration of the antibody which induces a response halfway between the baseline and maximum after some specified exposure time on a defined concentration of antigen by ELISA (enzyme-linked immuno-sorbent assay) or cell expressing the antigen by FACS (Fluorescence Activated Cell Sorting).
Affinity for human CEACAM5 or for Macaca fascicularis CEACAM5 may be determined as the EC50 value in an ELISA using soluble recombinant CEACAM5 as capture antigen.

B1: naked antibody: humanized anti-CEACAM5 antibody (tusamitamab), CAS Registry No. 2349294-95-5; VH SEQ ID NO: 6, VL SEQ ID NO: 7 (antibody, V domains shown)
VH: EVQLQESGPGLVKPGGSLSLSCAASGFVFSSYDMSWVRQTPERGLEWVAYISSGGGITYAPSTVKGRFTVSRDNAKNTLYLQMNSLTSEDTAVYYCAAHYFGSSGPFAYVVGQGTLVTVSS
VL: DIQMTQSPASLSASVGDRVTITCRASENIFSYLAWYQQKPGKSPKLLVYNTRTLAEGVPSRFSGSGSGTDFSLTISSLQPEDFATYYCQHHYGTPFTFGSGTKLEI
B1 was tested, and the EC50 was about 0.02 nM.
